Protein stability index data for 94 variants are collected here from the supplement of paper PMC10567573.

The labels stand for the following.
B1: TBX5 (parent)
chain: YQNHKITQLKIENNPFAKGFRGSD
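Also: lentivirally expressed fusions sorted by FACS into six bins by GFP to DsRed ratio, PSI derived from sequencing read proportions per bin multiplied by bin number.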

The variants in the data set derive from B1. Nature of the data set: protein stability index of a GFP-peptide fusion (GPS, HEK-293T) (PSI 1-6); higher = more stable. Particulars: c terminus: a fixed tail appended.
With YQNHKITQLKIEYNPFAKGFRGSD [N13Y], the protein stability index worked out at 1.77.
Consider YQNHKITQLKIEHNPFAKGFRGSD [N13H], for which the protein stability index amounted to 2.15.
The figure for YQNHKITQLKIEVNPFAKGFRGSD [N13V] is 1.81; for YQNHKITQLKIEKNPFAKGFRGSD [N13K] it is 2.34; for YQNHKITQLKIETNPFAKGFRGSD [N13T] it is 2.25.
The figure for YQNHKITQLKIEQNPFAKGFRGSD [N13Q] is 2.55; for YQNHKITQLKIELNPFAKGFRGSD [N13L] it is 1.67; for YQNHKITQLKIERNPFAKGFRGSD [N13R] it is 2.46.
As for YQNHKITQLKIEPNPFAKGFRGSD [N13P], the protein stability index was found to be 2.25.
In the case of YQNHKITQLKIEWNPFAKGFRGSD [N13W] it was 2.09; in that of YQNHKITQLKIEINPFAKGFRGSD [N13I], 1.51.
For YQNHKITQLKIESNPFAKGFRGSD [N13S], the protein stability index amounted to 2.37.
As to YQNHKITQLKIEMNPFAKGFRGSD [N13M], the protein stability index amounted to 2.29.
In the case of YQNHKITQLKIENNPFAFGFRGSD [K18F] it was 1.7; in that of YQNHKITQLKIENNPFAAGFRGSD [K18A], 2.24; in that of YQNHKITQLKIENNPFACGFRGSD [K18C], 1.36.
In the case of YQNHKITQLKIENNPFADGFRGSD [K18D] it was 2.16; in that of YQNHKITQLKIENNPFAEGFRGSD [K18E], 3.08; in that of YQNHKITQLKIENNPFVKGFRGSD [A17V], 2.73.
The figure for YQNHKITQLKIENNPFCKGFRGSD [A17C] is 2.22.
In the case of YQNHKITQLKIENNPFSKGFRGSD [A17S], the protein stability index is 2.01.
Take YQNHKITQLKIENNPFTKGFRGSD [A17T]: the protein stability index came out at 2.43.
In the case of YQNHKITQLKIENNPFRKGFRGSD [A17R] it was 2.12.
In the case of YQNHKITQLKIENNPFEKGFRGSD [A17E] it was 3.12; in that of YQNHKITQLKIENNPFGKGFRGSD [A17G], 2.27.
In the case of YQNHKITQLKIENNPFNKGFRGSD [A17N] it was 2.21; in that of YQNHKITQLKIENNPFWKGFRGSD [A17W], 1.98; in that of YQNHKITQLKIENNPFLKGFRGSD [A17L], 2.34.
Consider YQNHKITQLKIENNPFQKGFRGSD [A17Q], for which the protein stability index worked out at 2.54.
The figure for YQNHKITQLKIENNPFYKGFRGSD [A17Y] is 2.18.
In the case of YQNHKITQLKIENNPFKKGFRGSD [A17K] it was 2.73; in that of YQNHKITQLKIENNPFMKGFRGSD [A17M], 2.5; in that of YQNHKITQLKIENNPFFKGFRGSD [A17F], 1.95.
As for YQNHKITQLKIENNPFIKGFRGSD [A17I], the protein stability index amounted to 2.09.
In the case of YQNHKITQLKIENNPFPKGFRGSD [A17P] it was 2.77; in that of YQNHKITQLKIENNPFHKGFRGSD [A17H], 2.54.
In the case of YQNHKITQLKIENNPFDKGFRGSD [A17D] it was 2.73; in that of YQNHKITQLKIENNPAAKGFRGSD [F16A], 3.12; in that of YQNHKITQLKIENNPMAKGFRGSD [F16M], 2.98.
In the case of YQNHKITQLKIENNPEAKGFRGSD [F16E] it was 3.64.
Take YQNHKITQLKIENNPSAKGFRGSD [F16S]: the protein stability index worked out at 3.56.
The figure for YQNHKITQLKIENNPYAKGFRGSD [F16Y] is 2.46; for YQNHKITQLKIENNPVAKGFRGSD [F16V] it is 2.73; for YQNHKITQLKIENNPHAKGFRGSD [F16H] it is 3.54.
In the case of YQNHKITQLKIENNPPAKGFRGSD [F16P] it was 3.93; in that of YQNHKITQLKIENNPKAKGFRGSD [F16K], 3.31; in that of YQNHKITQLKIENNPDAKGFRGSD [F16D], 3.52.
The figure for YQNHKITQLKIENNPGAKGFRGSD [F16G] is 2.83; for YQNHKITQLKIENNPIAKGFRGSD [F16I] it is 3.
As to YQNHKITQLKIENNPQAKGFRGSD [F16Q], the protein stability index stood at 3.44.
The figure for YQNHKITQLKIENNPCAKGFRGSD [F16C] is 3.17; for YQNHKITQLKIENNPLAKGFRGSD [F16L] it is 2.51.
As to YQNHKITQLKIENNPRAKGFRGSD [F16R], the protein stability index came to 3.16.
The figure for YQNHKITQLKIENNPNAKGFRGSD [F16N] is 3.48.
In the case of YQNHKITQLKIENNPWAKGFRGSD [F16W] it was 1.93.
Take YQNHKITQLKIENNPTAKGFRGSD [F16T]: the protein stability index stood at 3.47.
The figure for YQNHKITQLKIENNQFAKGFRGSD [P15Q] is 2.32; for YQNHKITQLKIENNTFAKGFRGSD [P15T] it is 2.82; for YQNHKITQLKIENNEFAKGFRGSD [P15E] it is 2.69.
In the case of YQNHKITQLKIENNLFAKGFRGSD [P15L] it was 2.08; in that of YQNHKITQLKIENNDFAKGFRGSD [P15D], 3.34.
Regarding YQNHKITQLKIENNNFAKGFRGSD [P15N], the protein stability index was 2.7.
Regarding YQNHKITQLKIENNAFAKGFRGSD [P15A], the protein stability index turned out to be 2.52.
In the case of YQNHKITQLKIENNYFAKGFRGSD [P15Y] it was 2.34; in that of YQNHKITQLKIENNVFAKGFRGSD [P15V], 2.38; in that of YQNHKITQLKIENNMFAKGFRGSD [P15M], 2.65.
In the case of YQNHKITQLKIENNRFAKGFRGSD [P15R] it was 2.35.
On to YQNHKITQLKIENNWFAKGFRGSD [P15W], for which the protein stability index was 1.87.
The figure for YQNHKITQLKIENNIFAKGFRGSD [P15I] is 2.04; for YQNHKITQLKIENNFFAKGFRGSD [P15F] it is 1.96; for YQNHKITQLKIENNHFAKGFRGSD [P15H] it is 2.35.
The figure for YQNHKITQLKIENNGFAKGFRGSD [P15G] is 2.37.
The figure for YQNHKITQLKIENNCFAKGFRGSD [P15C] is 2.34; for YQNHKITQLKIENNKFAKGFRGSD [P15K] it is 2.33; for YQNHKITQLKIENNSFAKGFRGSD [P15S] it is 2.7.
In the case of YQNHKITQLKIENGPFAKGFRGSD [N14G], the protein stability index amounted to 2.46.
In the case of YQNHKITQLKIENAPFAKGFRGSD [N14A] it was 2.61; in that of YQNHKITQLKIENSPFAKGFRGSD [N14S], 2.16.
The figure for YQNHKITQLKIENWPFAKGFRGSD [N14W] is 1.59; for YQNHKITQLKIENMPFAKGFRGSD [N14M] it is 2.05.
In the case of YQNHKITQLKIENTPFAKGFRGSD [N14T] it was 2.61; in that of YQNHKITQLKIENRPFAKGFRGSD [N14R], 2.58.
Turning to YQNHKITQLKIENQPFAKGFRGSD [N14Q], the protein stability index is 2.94.
YQNHKITQLKIENHPFAKGFRGSD [N14H]: the protein stability index amounted to 2.36.
Turning to YQNHKITQLKIENKPFAKGFRGSD [N14K], the protein stability index was 2.75.
The figure for YQNHKITQLKIENDPFAKGFRGSD [N14D] is 2.84; for YQNHKITQLKIENLPFAKGFRGSD [N14L] it is 2.52; for YQNHKITQLKIENEPFAKGFRGSD [N14E] it is 2.95.
In the case of YQNHKITQLKIENVPFAKGFRGSD [N14V] it was 2.27; in that of YQNHKITQLKIENIPFAKGFRGSD [N14I], 2.41; in that of YQNHKITQLKIENCPFAKGFRGSD [N14C], 1.58.
Regarding YQNHKITQLKIENFPFAKGFRGSD [N14F], the protein stability index worked out at 2.34.
The figure for YQNHKITQLKIENYPFAKGFRGSD [N14Y] is 1.89; for YQNHKITQLKIENPPFAKGFRGSD [N14P] it is 2.52.
